This is an account of results in doi:10.1101/2025.05.16.654433.

This assay deals with T1, GSP-2 (C. elegans PP1 homolog), as found in the MudPIT immunoprecipitations, P48727.
T1 chain: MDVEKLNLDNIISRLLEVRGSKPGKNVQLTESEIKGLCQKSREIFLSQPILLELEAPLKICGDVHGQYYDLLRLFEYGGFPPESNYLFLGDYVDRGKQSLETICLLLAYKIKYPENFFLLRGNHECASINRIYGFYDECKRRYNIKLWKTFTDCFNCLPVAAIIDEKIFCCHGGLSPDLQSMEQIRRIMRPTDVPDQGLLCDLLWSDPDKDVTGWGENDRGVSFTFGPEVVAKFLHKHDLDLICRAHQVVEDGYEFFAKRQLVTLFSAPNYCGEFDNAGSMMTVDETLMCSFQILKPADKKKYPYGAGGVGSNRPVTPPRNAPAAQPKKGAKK
Briefly: MudPIT analysis of 3xflag immunoprecipitations. As to conditions: chain shown with the change, whole-worm lysates, parent: 10.79.

B1: APE-1 (C. elegans ASPP homolog), 3xflag-tagged, as in the MudPIT immunoprecipitations, Q9XVN3 H591Y (protein)
chain: MVTTSSGGGIGYPANNGVTQVSLIHSSDSVRTVSTAPIYRPTSSMASTMAHKSSTAPFISANQRMSKPPVRVVAQPPPPHPQALSQQYHQQNPMMMYSAPNTRPHVIPTMQVQPTMAAQIKRNNPVNAQFQNPSEMIADYGVKPQSVEMVQRVRAVRRQVADEETELRRLRELEHETAQLQNKNYGRERELNVQGSMLKEAQLELRNASMRAQSLNKHLEEMYRRRQTAAAAALVEQRKMQQHQILLARAANQVSTQEVIRPRASVEPFQVNNTQQQQPSPQMMKSEEFSEKRDLNGQTGSYDAIDGSGDHQKIPTEPSYLAPCKENQQKYSELSKMASTDPHSNHSSPSTSSQKAPTLITFSPPSFEQKINSSTMTRDSPFVERPTSFGDSLDESRLRSGKTDLVSLRSDSLKATKRRSWAASEGTSMSEAEMIHRLLDEQRRGRSHFIPQLPTSQEEPSAITSETYAEEVVNSESKQVATSSDSTNNLELPTEQMVLGSDTTTEEDASSCSTRSDDGQNLEMEVAIERRTVKGILRRPNEKMNKGRIEFDPLALLLDAALEGELDLVRSSASKLTDVSQANDEGITALYNAICAGHYEIVRFLIENDADVNAQDSDGWTPLHCAASCNNLPMVRQLVEGGGCVLASTLSDMETPVEKCEEDEDGYDGCLKYLSAAHNSTGSINTGKVYAAYGYEAAFEDELSFDAGDELTVIEKDKVDKNWWTCEKNNGEKGQVPRTYLALYPSLKYRKKLNFVMFDLPLESNNNVE
With B1, the response (% of total protein) (bait recovered in same sample 0.12 (mutant) vs 0.54 (wild type) % of total protein) worked out at 0.87.

B2: APE-1 (C. elegans ASPP homolog), 3xflag-tagged, as in the MudPIT immunoprecipitations, Q9XVN3 N583K (protein)
chain: MVTTSSGGGIGYPANNGVTQVSLIHSSDSVRTVSTAPIYRPTSSMASTMAHKSSTAPFISANQRMSKPPVRVVAQPPPPHPQALSQQYHQQNPMMMYSAPNTRPHVIPTMQVQPTMAAQIKRNNPVNAQFQNPSEMIADYGVKPQSVEMVQRVRAVRRQVADEETELRRLRELEHETAQLQNKNYGRERELNVQGSMLKEAQLELRNASMRAQSLNKHLEEMYRRRQTAAAAALVEQRKMQQHQILLARAANQVSTQEVIRPRASVEPFQVNNTQQQQPSPQMMKSEEFSEKRDLNGQTGSYDAIDGSGDHQKIPTEPSYLAPCKENQQKYSELSKMASTDPHSNHSSPSTSSQKAPTLITFSPPSFEQKINSSTMTRDSPFVERPTSFGDSLDESRLRSGKTDLVSLRSDSLKATKRRSWAASEGTSMSEAEMIHRLLDEQRRGRSHFIPQLPTSQEEPSAITSETYAEEVVNSESKQVATSSDSTNNLELPTEQMVLGSDTTTEEDASSCSTRSDDGQNLEMEVAIERRTVKGILRRPNEKMNKGRIEFDPLALLLDAALEGELDLVRSSASKLTDVSQAKDEGITALHNAICAGHYEIVRFLIENDADVNAQDSDGWTPLHCAASCNNLPMVRQLVEGGGCVLASTLSDMETPVEKCEEDEDGYDGCLKYLSAAHNSTGSINTGKVYAAYGYEAAFEDELSFDAGDELTVIEKDKVDKNWWTCEKNNGEKGQVPRTYLALYPSLKYRKKLNFVMFDLPLESNNNVE
In the case of B2, the response (% of total protein) (bait recovered in same sample 0.22 (mutant) vs 0.54 (wild type) % of total protein) is 0.87.
